Here are results for five molecules from US20120184713A1, “Compositions and Methods for Modulation of Bone Density and Biomineralization” (priority 2011, published 2012).

The test system of series [1] is Golgi apparatus casein kinase (G-CK). The note with it: literature value (ref. 20), cited from earlier work.
The target in series [2] is T1, FAM20C (Mus musculus, UniProt Q5MJS3).
T1 construct: His (from vector pcDNA3.1/V5-His B) (C); made in house; host or cells: HEK293T
T1 sequence (Q5MJS3 88-579): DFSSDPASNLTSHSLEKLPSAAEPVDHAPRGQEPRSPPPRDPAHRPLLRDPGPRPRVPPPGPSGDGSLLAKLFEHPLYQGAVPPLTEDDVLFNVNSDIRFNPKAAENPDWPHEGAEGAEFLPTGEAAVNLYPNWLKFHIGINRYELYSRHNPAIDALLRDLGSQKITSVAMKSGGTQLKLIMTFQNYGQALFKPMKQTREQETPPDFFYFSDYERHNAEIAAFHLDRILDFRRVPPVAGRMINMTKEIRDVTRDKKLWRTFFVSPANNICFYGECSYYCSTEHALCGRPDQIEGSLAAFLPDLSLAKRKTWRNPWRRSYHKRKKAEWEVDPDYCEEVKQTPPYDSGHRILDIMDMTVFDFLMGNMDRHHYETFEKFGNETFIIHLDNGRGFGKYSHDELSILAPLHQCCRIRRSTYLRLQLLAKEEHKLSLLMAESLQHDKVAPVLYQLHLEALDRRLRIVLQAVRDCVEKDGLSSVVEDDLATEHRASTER
The series can be described thus: FAM20C in vitro kinase assay with dephosphorylated alpha-Casein as substrate. The series is classed as biochemical. The note with it: 5 minute assays. How it is done:
For FAM20C:V5 purification, pcDNA-FAM20C:V5 was transfected to HEK293T cells, and FAM20C:V5 was purified from conditioned media using anti-V5 agarose beads (Sigma). Condition media were incubated with anti-V5 affinity gel (Sigma) overnight at 4° C. Agarose beads were collected by centrifugation, and washed 5 times with TBS. Proteins were eluted using V5 peptides in TBS (Sigma, final concentration: 100 μg/ml). For purification of OPN:FLAG, BSP:FLAG, DMP1:FLAG, DSPP:FLAG and MEPE:FLAG, condition media were incubated with anti-FLAG M2 affinity gel (Sigma) overnight at 4° C. Agarose beads were collected by centrifugation, and washed 5 times with TBS. Purified quantification was performed on gels stained by SYPRO Ruby Protein Gel Stain (Invitrogen), using BSA as a standard.
FAM20C kinase assays were performed in 10 μl reactions, with 500 μM ATP, including 3 μCi (0.05 μM) of [gamma-^32P]ATP (6000 Ci/mmol, PerkinElmer), 50 mM Tris (pH 7.0), 10 mM MnCl2, 0.1% BSA, purified FAM20C:V5 (5 ng, […]), and dephosphorylated alpha-Casein (0.1 μg, Sigma). […] Radioactivity within the gels was detected using a Molecular Dynamics Phosphor Imager. For quantitation of gamma-^32P incorporation, bands were cut out of the gels using the Phosphor Imager pictures as a reference, and then counted by liquid scintillation using a Beckman Coulter LC6500. […]

Series [3] addresses T1, FAM20C. The series can be described thus: FAM20C kinase assay with peptide substrates (P81 phosphocellulose paper). The note with it: in vitro kinase reaction, FIG. 6. The series is classed as biochemical. How it is done: FAM20C kinase assays were performed in 10 μl reactions, with 500 μM ATP, including 3 μCi (0.05 μM) of [gamma-^32P]ATP (6000 Ci/mmol, PerkinElmer), 50 mM Tris (pH 7.0), 10 mM MnCl2, 0.1% BSA, purified FAM20C:V5 (5 ng, […]), and dephosphorylated alpha-Casein (0.1 μg, Sigma). The kinase reaction was linear at 5 minutes, and the reaction rate was dependent on enzyme and substrate concentrations. Reactions were stopped by adding SDS sample buffer and boiling, and one half of the reaction volume was subjected to SDS-PAGE. Radioactivity within the gels was detected using a Molecular Dynamics Phosphor Imager. For quantitation of gamma-^32P incorporation, bands were cut out of the gels using the Phosphor Imager pictures as a reference, and then counted by liquid scintillation using a Beckman Coulter LC6500. Myelin Basic Protein (0.5 μg, NEB) and affinity-purified Fat2-3:FLAG (0.1 μg)^8 were used as control substrates. To determine pH-dependency, the pH in the reaction buffer was varied using Tris-HCl buffers. Synthesized peptides were designed from the sequence of human Osteopontin 115Asp to 132Leu, adding three basic amino acids (Arg-Lys-Arg) to its N-terminus to enable peptide binding to phosphocellulose paper (P81, Upstate). Peptides were purchased from Peptide2.0. Peptide1 ([…]; SEQ ID NO: 41), Peptide2 ([…]; SEQ ID NO: 42), Peptide3 ([…]; SEQ ID NO: 43), and Peptide4 ([…]; SEQ ID NO: 44).
(§1) FAM20C kinase assay with peptides substrates were performed in 10 μl reactions, with 500 μM ATP, including 3 μCi (0.05 μM) of [gamma-^32P]ATP (6000 Ci/mmol, PerkinElmer), 50 mM Tris (pH 7.0), 10 mM MnCl2, 0.1% BSA, purified FAM20C:V5 and peptides. Casein Kinase I (500 units, NEB) was used as a control kinase. mutant versions (5 ng, […]), and peptides (2.5 μg, 1 nmol as a standard condition. 250 ng, […] in FAM20C mutants). Reactions were stopped by adding 1.5 μl 0.1N—HCl, and one half of the reaction volume was pipetted on to P81 phospho-cellulose filter paper^27. The filter papers were washed with 0.5% phosphoric acid and subjected to liquid scintillation counting.

The next series concerns the target T2, Casein Kinase I (Rattus norvegicus, UniProt Q06486).
T2 construct: purchased NEB
T2 sequence (Q06486 1-317 limits assumed): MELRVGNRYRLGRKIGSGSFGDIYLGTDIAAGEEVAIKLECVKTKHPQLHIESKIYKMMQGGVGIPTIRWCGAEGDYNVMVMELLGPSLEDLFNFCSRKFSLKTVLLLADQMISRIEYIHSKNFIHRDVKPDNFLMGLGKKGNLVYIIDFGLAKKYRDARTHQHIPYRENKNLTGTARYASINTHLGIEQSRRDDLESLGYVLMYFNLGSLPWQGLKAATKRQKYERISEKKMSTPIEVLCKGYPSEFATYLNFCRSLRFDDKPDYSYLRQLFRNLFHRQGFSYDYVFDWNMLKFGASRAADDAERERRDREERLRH
The series can be described thus: Casein Kinase I control kinase assay with peptide substrates. The class given is biochemical. The conditions noted are these: in vitro kinase reaction, FIG. 6. How it is done: as §1

Like-named read-outs stand apart in the source and are kept apart here.

For the molecule `Nc1ncnc2c1ncn2[C@@H]1O[C@H](COP(=O)(O)OP(=O)(O)OP(=O)(O)O)[C@@H](O)[C@H]1O` [ATP], the Km in series [1] (read-out: Km for ATP originally measured for G-CK) is 80 µM; on FAM20C [2] (FAM20C, dephosphorylated alpha casein as substrate, read-out: Km for ATP) it was 78 µM.

In the case of Casein, the Km is 12 µM in series [1] (read-out: Km for α-Casein for G-CK) and 1.5 µM with FAM20C [2] (linear reaction conditions, average of several independent experiments, read-out: Michaelis constant (Km) of FAM20C for Casein).

Consider “RKRDDAHQSDEAHHSDESDEL [OPN-ASARM^2S-A, derivative in which the other two Ser residues were changed to Ala]”, for which the “phosphorylation of peptide by FAM20C” value with FAM20C [3] is reported as “still efficiently phosphorylated”. In the series with Casein Kinase I, the “phosphorylation of peptide by CKI” value was “reduced, but similar levels of activity”.

Turning to “RKRDDSHQADESHHADEADEL [OPN-ASARM^3S-A, peptide in which only the three G-CK consensus sites were changed to Ala]”, the “phosphorylation of peptide by FAM20C” value with FAM20C [3] is given as “phosphorylated much less effectively”. In the series with Casein Kinase I, the “phosphorylation of peptide by CKI” value is “reduced, but similar levels of activity”.

Take “RKRDDSHQSDESHHSDESDEL [OPN-ASARM, amino acids 115-132 of human OPN with N-terminal Arg-Lys-Arg]”: the “phosphorylation of peptide by FAM20C” value with FAM20C [3] is recorded as “is a FAM20C substrate”. Moreover, the “phosphorylation of peptide by CKI” value with Casein Kinase I is on record as “phosphorylated”.

The term Km denotes the substrate concentration at which the rate is half of its maximum.
